Target: the molecule itself
Assay: crystal structure; wt PpnN co-crystallised with pppGpp (3:4 PpnN; pppGpp on three of four subunits; R5P and guanine in the active sites); 6-8 mg/ml PpnN, 1-2 mM ligand

Protein | stoichiometry N
PpnN (wild type), nucleosidase of Escherichia coli (enzyme, UniProt P0ADR8 1-454, looked up, PpnN (previously YgdH), nucleosidase, Escherichia coli; PAG1 domain 1-150, catalytic domain 151-329, PAG2 domain 330-454; also called wt PpnN; PpnNwt; source: E. coli BL21 (DE3) ΔppnN (ppnN::kan), purified (Ni-NTA, Superdex 200 for biochemistry; HisTrap, SourceQ, Superdex 200 Increase for crystallisation); not shown: His6, N-terminal, kept) MITHISPLGSMDMLSQLEVDMLKRTASSDLYQLFRNCSLAVLNSGSLTDNSKELLSRFENFDINVLRRERGVKLELINPPEEAFVDGRIIRALQANLFAVLRDILFVYGQIHNTVRFPNLNLDNSVHITNLVFSILRNARALHVGEAPNMVVCWGGHSINENEYLYARRVGNQLGLRELNICTGCGPGAMEAPMKGAAVGHAQQRYKDSRFIGMTEPSIIAAEPPNPLVNELIIMPDIEKRLEAFVRIAHGIIIFPGGVGTAEELLYLLGILMNPANKDQVLPLILTGPKESADYFRVLDEFVVHTLGENARRHYRIIIDDAAEVARQMKKSMPLVKENRRDTGDAYSFNWSMRIAPDLQMPFEPSHENMANLKLYPDQPVEVLAADLRRAFSGIVAGNVKEVGIRAIEEFGPYKINGDKEIMRRMDDLLQGFVAQHRMKLPGSAYIPCYEICT | 4

Target: the molecule itself
Assay: crystal structure; PpnN E264A co-crystallised with pppGpp and 2 mM GMP (E264A 4:4 PpnN; four pppGpp and four R5P bound); 6-8 mg/ml PpnN; 3.5 Å

Protein | stoichiometry N
PpnN E264A (enzyme, Escherichia coli, UniProt P0ADR8 1-454, looked up, PpnN (previously YgdH), nucleosidase, Escherichia coli, with E264A; Made by quick-change mutagenesis on pCA24N-ppnN (wt); also called E264A 4:4 PpnN; E264A variant; source: E. coli BL21 (DE3) ΔppnN (ppnN::kan), purified (Ni-NTA, Superdex 200 for biochemistry; HisTrap, SourceQ, Superdex 200 Increase for crystallisation)) MITHISPLGSMDMLSQLEVDMLKRTASSDLYQLFRNCSLAVLNSGSLTDNSKELLSRFENFDINVLRRERGVKLELINPPEEAFVDGRIIRALQANLFAVLRDILFVYGQIHNTVRFPNLNLDNSVHITNLVFSILRNARALHVGEAPNMVVCWGGHSINENEYLYARRVGNQLGLRELNICTGCGPGAMEAPMKGAAVGHAQQRYKDSRFIGMTEPSIIAAEPPNPLVNELIIMPDIEKRLEAFVRIAHGIIIFPGGVGTAEALLYLLGILMNPANKDQVLPLILTGPKESADYFRVLDEFVVHTLGENARRHYRIIIDDAAEVARQMKKSMPLVKENRRDTGDAYSFNWSMRIAPDLQMPFEPSHENMANLKLYPDQPVEVLAADLRRAFSGIVAGNVKEVGIRAIEEFGPYKINGDKEIMRRMDDLLQGFVAQHRMKLPGSAYIPCYEICT | 4

Target: the molecule itself
Assay: SEC; Superdex 200 10/300 GL in 50 mM Tris-HCl pH 7.5, 200 mM NaCl, 5% glycerol, 5 mM BME; elution profiles of variants compared with wt PpnN

Protein | stoichiometry N
PpnN K195A (enzyme, Escherichia coli, UniProt P0ADR8 1-454, looked up, PpnN (previously YgdH), nucleosidase, Escherichia coli, with K195A; Made by quick-change mutagenesis on pCA24N-ppnN (wt); source: E. coli BL21 (DE3) ΔppnN, purified (Ni-NTA, Superdex 200)) MITHISPLGSMDMLSQLEVDMLKRTASSDLYQLFRNCSLAVLNSGSLTDNSKELLSRFENFDINVLRRERGVKLELINPPEEAFVDGRIIRALQANLFAVLRDILFVYGQIHNTVRFPNLNLDNSVHITNLVFSILRNARALHVGEAPNMVVCWGGHSINENEYLYARRVGNQLGLRELNICTGCGPGAMEAPMAGAAVGHAQQRYKDSRFIGMTEPSIIAAEPPNPLVNELIIMPDIEKRLEAFVRIAHGIIIFPGGVGTAEELLYLLGILMNPANKDQVLPLILTGPKESADYFRVLDEFVVHTLGENARRHYRIIIDDAAEVARQMKKSMPLVKENRRDTGDAYSFNWSMRIAPDLQMPFEPSHENMANLKLYPDQPVEVLAADLRRAFSGIVAGNVKEVGIRAIEEFGPYKINGDKEIMRRMDDLLQGFVAQHRMKLPGSAYIPCYEICT | 4
PpnN E263A (enzyme, Escherichia coli, UniProt P0ADR8 1-454, looked up, PpnN (previously YgdH), nucleosidase, Escherichia coli, with E263A; Made by quick-change mutagenesis on pCA24N-ppnN (wt); also called E263A variant; source: E. coli BL21 (DE3) ΔppnN, purified (Ni-NTA, Superdex 200)) MITHISPLGSMDMLSQLEVDMLKRTASSDLYQLFRNCSLAVLNSGSLTDNSKELLSRFENFDINVLRRERGVKLELINPPEEAFVDGRIIRALQANLFAVLRDILFVYGQIHNTVRFPNLNLDNSVHITNLVFSILRNARALHVGEAPNMVVCWGGHSINENEYLYARRVGNQLGLRELNICTGCGPGAMEAPMKGAAVGHAQQRYKDSRFIGMTEPSIIAAEPPNPLVNELIIMPDIEKRLEAFVRIAHGIIIFPGGVGTAAELLYLLGILMNPANKDQVLPLILTGPKESADYFRVLDEFVVHTLGENARRHYRIIIDDAAEVARQMKKSMPLVKENRRDTGDAYSFNWSMRIAPDLQMPFEPSHENMANLKLYPDQPVEVLAADLRRAFSGIVAGNVKEVGIRAIEEFGPYKINGDKEIMRRMDDLLQGFVAQHRMKLPGSAYIPCYEICT | 4
PpnN H157A (enzyme, Escherichia coli, UniProt P0ADR8 1-454, looked up, PpnN (previously YgdH), nucleosidase, Escherichia coli, with H157A; Made by quick-change mutagenesis on pCA24N-ppnN (wt); also called H157A variant; source: E. coli BL21 (DE3) ΔppnN, purified (Ni-NTA, Superdex 200)) MITHISPLGSMDMLSQLEVDMLKRTASSDLYQLFRNCSLAVLNSGSLTDNSKELLSRFENFDINVLRRERGVKLELINPPEEAFVDGRIIRALQANLFAVLRDILFVYGQIHNTVRFPNLNLDNSVHITNLVFSILRNARALHVGEAPNMVVCWGGASINENEYLYARRVGNQLGLRELNICTGCGPGAMEAPMKGAAVGHAQQRYKDSRFIGMTEPSIIAAEPPNPLVNELIIMPDIEKRLEAFVRIAHGIIIFPGGVGTAEELLYLLGILMNPANKDQVLPLILTGPKESADYFRVLDEFVVHTLGENARRHYRIIIDDAAEVARQMKKSMPLVKENRRDTGDAYSFNWSMRIAPDLQMPFEPSHENMANLKLYPDQPVEVLAADLRRAFSGIVAGNVKEVGIRAIEEFGPYKINGDKEIMRRMDDLLQGFVAQHRMKLPGSAYIPCYEICT | 4
PpnN T261A (enzyme, Escherichia coli, UniProt P0ADR8 1-454, looked up, PpnN (previously YgdH), nucleosidase, Escherichia coli, with T261A; Made by quick-change mutagenesis on pCA24N-ppnN (wt); also called T261A variant; source: E. coli BL21 (DE3) ΔppnN, purified (Ni-NTA, Superdex 200)) MITHISPLGSMDMLSQLEVDMLKRTASSDLYQLFRNCSLAVLNSGSLTDNSKELLSRFENFDINVLRRERGVKLELINPPEEAFVDGRIIRALQANLFAVLRDILFVYGQIHNTVRFPNLNLDNSVHITNLVFSILRNARALHVGEAPNMVVCWGGHSINENEYLYARRVGNQLGLRELNICTGCGPGAMEAPMKGAAVGHAQQRYKDSRFIGMTEPSIIAAEPPNPLVNELIIMPDIEKRLEAFVRIAHGIIIFPGGVGAAEELLYLLGILMNPANKDQVLPLILTGPKESADYFRVLDEFVVHTLGENARRHYRIIIDDAAEVARQMKKSMPLVKENRRDTGDAYSFNWSMRIAPDLQMPFEPSHENMANLKLYPDQPVEVLAADLRRAFSGIVAGNVKEVGIRAIEEFGPYKINGDKEIMRRMDDLLQGFVAQHRMKLPGSAYIPCYEICT | 4
PpnN D49A (enzyme, Escherichia coli, UniProt P0ADR8 1-454, looked up, PpnN (previously YgdH), nucleosidase, Escherichia coli, with D49A; Made by quick-change mutagenesis on pCA24N-ppnN (wt); source: E. coli BL21 (DE3) ΔppnN, purified (Ni-NTA, Superdex 200)) MITHISPLGSMDMLSQLEVDMLKRTASSDLYQLFRNCSLAVLNSGSLTANSKELLSRFENFDINVLRRERGVKLELINPPEEAFVDGRIIRALQANLFAVLRDILFVYGQIHNTVRFPNLNLDNSVHITNLVFSILRNARALHVGEAPNMVVCWGGHSINENEYLYARRVGNQLGLRELNICTGCGPGAMEAPMKGAAVGHAQQRYKDSRFIGMTEPSIIAAEPPNPLVNELIIMPDIEKRLEAFVRIAHGIIIFPGGVGTAEELLYLLGILMNPANKDQVLPLILTGPKESADYFRVLDEFVVHTLGENARRHYRIIIDDAAEVARQMKKSMPLVKENRRDTGDAYSFNWSMRIAPDLQMPFEPSHENMANLKLYPDQPVEVLAADLRRAFSGIVAGNVKEVGIRAIEEFGPYKINGDKEIMRRMDDLLQGFVAQHRMKLPGSAYIPCYEICT | 4
PpnN R241A (enzyme, Escherichia coli, UniProt P0ADR8 1-454, looked up, PpnN (previously YgdH), nucleosidase, Escherichia coli, with R241A; Made by quick-change mutagenesis on pCA24N-ppnN (wt); also called R241A variant; source: E. coli BL21 (DE3) ΔppnN, purified (Ni-NTA, Superdex 200)) MITHISPLGSMDMLSQLEVDMLKRTASSDLYQLFRNCSLAVLNSGSLTDNSKELLSRFENFDINVLRRERGVKLELINPPEEAFVDGRIIRALQANLFAVLRDILFVYGQIHNTVRFPNLNLDNSVHITNLVFSILRNARALHVGEAPNMVVCWGGHSINENEYLYARRVGNQLGLRELNICTGCGPGAMEAPMKGAAVGHAQQRYKDSRFIGMTEPSIIAAEPPNPLVNELIIMPDIEKALEAFVRIAHGIIIFPGGVGTAEELLYLLGILMNPANKDQVLPLILTGPKESADYFRVLDEFVVHTLGENARRHYRIIIDDAAEVARQMKKSMPLVKENRRDTGDAYSFNWSMRIAPDLQMPFEPSHENMANLKLYPDQPVEVLAADLRRAFSGIVAGNVKEVGIRAIEEFGPYKINGDKEIMRRMDDLLQGFVAQHRMKLPGSAYIPCYEICT | 4
PpnN E223A (enzyme, Escherichia coli, UniProt P0ADR8 1-454, looked up, PpnN (previously YgdH), nucleosidase, Escherichia coli, with E223A; Made by quick-change mutagenesis on pCA24N-ppnN (wt); also called E223A variant; source: E. coli BL21 (DE3) ΔppnN, purified (Ni-NTA, Superdex 200)) MITHISPLGSMDMLSQLEVDMLKRTASSDLYQLFRNCSLAVLNSGSLTDNSKELLSRFENFDINVLRRERGVKLELINPPEEAFVDGRIIRALQANLFAVLRDILFVYGQIHNTVRFPNLNLDNSVHITNLVFSILRNARALHVGEAPNMVVCWGGHSINENEYLYARRVGNQLGLRELNICTGCGPGAMEAPMKGAAVGHAQQRYKDSRFIGMTEPSIIAAAPPNPLVNELIIMPDIEKRLEAFVRIAHGIIIFPGGVGTAEELLYLLGILMNPANKDQVLPLILTGPKESADYFRVLDEFVVHTLGENARRHYRIIIDDAAEVARQMKKSMPLVKENRRDTGDAYSFNWSMRIAPDLQMPFEPSHENMANLKLYPDQPVEVLAADLRRAFSGIVAGNVKEVGIRAIEEFGPYKINGDKEIMRRMDDLLQGFVAQHRMKLPGSAYIPCYEICT | 4
PpnN M190A (enzyme, Escherichia coli, UniProt P0ADR8 1-454, looked up, PpnN (previously YgdH), nucleosidase, Escherichia coli, with M190A; Made by quick-change mutagenesis on pCA24N-ppnN (wt); also called M190A variant; source: E. coli BL21 (DE3) ΔppnN, purified (Ni-NTA, Superdex 200)) MITHISPLGSMDMLSQLEVDMLKRTASSDLYQLFRNCSLAVLNSGSLTDNSKELLSRFENFDINVLRRERGVKLELINPPEEAFVDGRIIRALQANLFAVLRDILFVYGQIHNTVRFPNLNLDNSVHITNLVFSILRNARALHVGEAPNMVVCWGGHSINENEYLYARRVGNQLGLRELNICTGCGPGAAEAPMKGAAVGHAQQRYKDSRFIGMTEPSIIAAEPPNPLVNELIIMPDIEKRLEAFVRIAHGIIIFPGGVGTAEELLYLLGILMNPANKDQVLPLILTGPKESADYFRVLDEFVVHTLGENARRHYRIIIDDAAEVARQMKKSMPLVKENRRDTGDAYSFNWSMRIAPDLQMPFEPSHENMANLKLYPDQPVEVLAADLRRAFSGIVAGNVKEVGIRAIEEFGPYKINGDKEIMRRMDDLLQGFVAQHRMKLPGSAYIPCYEICT | 4

— doi:10.1101/2025.04.13.648610, “Catalytic Mechanism and Differential Alarmone Regulation of a Conserved Stringent Nucleosidase” (bioRxiv, 2025)
